Where “and” joins values, the source holds several entries; their conditions need not be identical. Identical values can stand only once. Positions of bridges follow the written chain, without caps; N, C: chain ends. Non-standard residues stand in square brackets, D forms with d. Residues, ends and D or L forms follow the SMILES beside them. *: point of attachment. DO3A(CH2CH2SO2CH2CH2) = O=C(O)CN1CCN(CCS(=O)(=O)CC*)CCN(CC(=O)O)CCN(CC(=O)O)CC1; Ala(4-thiazolyl) = N[C@@H](Cc1cscn1)C(=O)O
Experiments:
[1] = system: rat spleen sections; assay: In vitro autoradiography of spleen sections; type: binding, Sprague Dawley rat; conditions: 10 µM GCG or 1 µm DO3A-S01-GCG precursor, 60 min RT, n = 3
Experimental: (§1) Splenic binding of [^68Ga]Ga-DO3A-S01-GCG was previously observed in rat in vivo[5]. This assay was performed to elucidate if splenic binding in human and NHP in vivo would be expected.
(§2) Spleen tissue was collected post-mortem from the NHP and Sprague Dawley rat. Biopsies from donor human spleen were obtained from Uppsala Biobank (sample collection 827) and approved by local ethical review board (Drn 2016/465).
(§3) The splenic biopsies were processed to 10 µm frozen tissue sections by a cryotome. The sections were pre-incubated in phosphate-buffered saline (PBS) (pH 7.4, 1% Bovine Serum Albumin (BSA)) for 10 min at room temperature (RT). Then, the sections were incubated with 5 nM [^68Ga]Ga-DO3A-S01-GCG in […] PBS (pH 7.4, 1% BSA), either alone or in the presence of 10 µM GCG or 1 µm DO3A-S01-GCG precursor for 60 min at RT.
(§4) After incubation, the sections were washed three times, first with assay buffer (PBS pH 7.4 1% BSA) and then twice with PBS for 1 minute. Sections were carefully dried at 37 °C and then exposed against a digital phosphorimager plate, together with a 20 µl reference from the buffer calibrated against a gamma-counter to enable quantification to fmol bound radioligand/mm^3. The phosphorimager plates were scanned using a Cyclone Plus Phosphor imager (Perkin Elmer) at 600 dpi, and the resulting autoradiograms analysed by ImageJ (NIH, Bethesda). […]

[2] = system: NHP spleen sections; assay: In vitro autoradiography of spleen sections; type: binding; conditions: 10 µM GCG or 1 µm DO3A-S01-GCG precursor, 60 min RT, n = 3
Experimental: as §1, §2, §3, §4

[3] = system: human spleen sections; assay: In vitro autoradiography of spleen sections; type: binding; conditions: 10 µM GCG or 1 µm DO3A-S01-GCG precursor, 60 min RT, n = 3
Experimental: as §1, §2, §3, §4

[4] = In vivo metabolic stability in venous plasma (radio-HPLC); set-up: species or system cynomolgus monkeys; conditions: NHP in vivo, n = 3
Experimental: For NHP 5–7, venous blood samples were taken at 5, 30 and 60 min for assessment of in vivo metabolic stability of [^68Ga]Ga-DO3A-S01-GCG, using HPLC methods described below. The percentage of intact [^68Ga]Ga-DO3A-S01-GCG was plotted against time from administration and fitted to a mono-exponential function.
Blood samples were centrifuged at 4000 rpm for 2 minutes at 4 °C (Beckman Allegra X-22R Centrifuge, Palo Alto, USA). From the plasma, 0.5 ml was taken and an equal volume of acetonitrile was added to precipitate the proteins. The mixture was centrifuged at 13200 rpm at 4 °C for 1 min (Eppendorf 5415 R centrifuge, Eppendorf AG, Hamburg, Germany). The supernatant was filtered through a 0.2 μm nylon membrane (Corning Incorporated, Corning, NY, USA) by centrifugation at 13200 rpm at 4 °C for 1 min. 500 µl of the filtered supernatant was diluted with 1500 µl H2O; thereafter, 30 µl of 0.01 mM unlabelled DO3A-S01-GCG was added to the mixture. The sample preparation recovery was determined by measuring the radioactivity in the plasma, filters and pellet.
HPLC analysis was performed using a binary pump system (Gilson, Middleton, USA). The sample (1.8 ml) was injected using an automated solid phase extraction controller (ASPEC Gilson) connected to a dilutor (Gilson). The separation was performed on an Xbridge Prep BEH130 C18 (peptide separation technology) 250 mm × 10 mm, 5 µm with a 10 × 10 mm C18 security guard from the same supplier. The HPLC system was operated at a flow rate of 6 ml/min. The mobile phase consisted of 0.1% TFA in MilliQ: 0.1% TFA in Acetonitrile. Gradient elution mode was used for the separation (Gradient: 0–7 min: 5–70%, 7–12 min: 70%, 12–13 min: 70–5%, 13–15 min: 5%).
A second method was developed with a lesser gradient, to determine if any metabolites were co-eluting with the DO3A-S01-GCG peak. A UV detector (Gilson) was used to detect unlabelled DO3A-S01-GCG at 220 nm. […] Six fractions were collected, and the radioactivity in the fractions was measured by a well-type scintillation counter. […]

[5] = Human predicted radiation dosimetry extrapolated from NHP biodistribution (OLINDA/EXM 1.1)
Experimental: The predicted dosimetry of [^68Ga]Ga-DO3A-S01-GCG in human males was estimated based on the in vivo biodistribution in NHPs as captured by dynamic PET examinations. The baseline PET examinations in NHP 2–7 (n=6) were averaged for the dosimetry analysis. […] However, the uptake in the brain in NHP is likely negligible based on observations in rat (5) as well as a whole-body PET/CT examination performed on NHP1 90–120 minutes post [^68Ga]Ga-DO3A-S01-GCG administration.
The dosimetry calculations were performed as described previously for [^68Ga]Ga-DO3A-VS-Cys^40-Exendin4[4] and [^68Ga]Ga-DO3A-S01-GCG in rat[5].
In brief, dynamic NHP organ uptake as measured by PET and expressed as SUV was normalised to that of human organs (using tissue weights of whole-body adult reference phantoms). The decay-corrected and normalized SUVs were back-corrected to count rates to calculate the actual radiation burden in each tissue. The tissue residence times (MBq-h/MBq) were assessed by trapezoidal approximation of the un-decay corrected human SUV biodistribution data. The tissue washout from the last time point (90 minutes) until infinity was estimated by a single mono-exponential fit.
The estimation of the absorbed dose was performed by the OLINDA/EXM 1.1 software, where the calculations were based on the adult reference male or female phantoms to obtain the absorbed dose estimate in humans (ICRP60). The organ specific doses are reported as mGy/MBq (effective dose as mSv/MBq). The amount of MBq that can be safely administered annually (MBq/year) was calculated for each organ as well as the effective dose, by dividing the limiting dose (10 mSv/year for the effective dose, 150 mGy/year for all tissues except for red marrow with 50 mGy/year) by the dose (mGy/MBq or mSv/MBq).

[6] = extrapolated from NHP 2-7 baseline PET (n = 6)

Molecule	Blocking of [68Ga]Ga-DO3A-S01-GCG binding in rat spleen sections by co-incubation [1]	Effect of co-incubation on [68Ga]Ga-DO3A-S01-GCG binding in NHP spleen sections [2]	Effect of co-incubation on [68Ga]Ga-DO3A-S01-GCG binding in human spleen sections [3]	Intact radioligand in venous plasma ([4]; 5 minutes after administration)	Intact radioligand in venous plasma ([4]; 30 minutes after administration)	Intact radioligand in venous plasma ([4]; 60 minutes after administration)	Human predicted absorbed dose, heart wall (myocardium) [5, 6]	Human predicted absorbed dose, kidneys [5, 6]	Human predicted absorbed dose, liver [5, 6]	Human predicted absorbed dose, red marrow [5, 6]	Human predicted effective dose [5, 6]	Annual limit of administered radioactivity, effective dose limiting ([5]; limit 10 mSv/year)	Annual exposure limit from red marrow absorbed dose ([5]; limit 50 mGy/year)	Annual administration allowed by critical organ kidney ([5]; limit 150 mGy/year)
glucagon	could be blocked	not affected	not affected											
CC[C@H](C)[C@H](NC(=O)[C@H](Cc1ccccc1)NC(=O)[C@H](CCC(=O)O)NC(=O)[C@@H]1CCCCNC(=O)CC[C@H](NC(=O)[C@H](CC(=O)O)NC(=O)[C@H](CC(C)C)NC(=O)[C@H](CCC(N)=O)NC(=O)[C@H](CCCCN)NC(=O)[C@H](CO)NC(=O)[C@H](Cc2ccc(O)cc2)NC(=O)[C@H](CC(=O)O)NC(=O)[C@H](CO)NC(=O)[C@@H](NC(=O)[C@H](Cc2ccccc2)NC(=O)[C@@H](NC(=O)CNC(=O)[C@H](CCC(N)=O)NC(=O)[C@@H](CO)NC(=O)[C@@H](N)Cc2cscn2)[C@@H](C)O)[C@@H](C)O)C(=O)N[C@@H](CCC(N)=O)C(=O)N[C@@H](CCCNC(=N)N)C(=O)N[C@@H](C)C(=O)N1)C(=O)N[C@@H](CCC(=O)O)C(=O)N[C@@H](Cc1c[nH]c2ccccc12)C(=O)N[C@@H](CC(C)C)C(=O)N[C@@H](CC(C)C)C(=O)N[C@@H](C)C(=O)N[C@H](C(=O)NCC(=O)N1CCC[C@H]1C(=O)N[C@@H](CCC(=O)O)C(=O)N[C@@H](CO)C(=O)NCC(=O)N[C@@H](C)C(=O)N1CCC[C@H]1C(=O)N1CCC[C@H]1C(=O)N1CCC[C@H]1C(=O)N[C@@H](CO)C(=O)N[C@@H](CSCCS(=O)(=O)CCN1CCN(CC(=O)O)CCN(CC(=O)O)CCN(CC(=O)O)CC1)C(N)=O)[C@@H](C)O [[^68Ga]Ga-DO3A-S01-GCG, metal not drawn] (H-[Ala(4-thiazolyl)][dS]QGTFTSDYSKQLDEQRAKEFIEWLLATGPESGAPPPSC(DO3A(CH2CH2SO2CH2CH2))-NH2; lactam 16-20)				95.9 ± 1.2%	89.0 ± 2.7%	80.3 ± 3.3%	0.10 mGy/MBq	0.29 mGy/MBq	0.049 mGy/MBq	0.039 mGy/MBq	20.6 µSv/MBq	485 MBq	> 1000 MBq	519 MBq and > 500 MBq
